From the supplement of paper PMC11780869

Tested on: Bacillus subtilis
Experiment: cleaved RNA product abundance (RNA/gDNA barcode ratio) relative to median wild-type variant (ratio to wild type); higher = more accumulation of the downstream cleavage product
In short: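 Reporter mRNAs based on truncated aprE or tetM carried barcoded, mutagenized RNase Y cleavage-site windows built from oligos with a 9% error rate and were integrated into the B. subtilis chromosome. Cultures grew in LB at 37°C from OD600 0.0003 to 0.3. Cleaved RNA was gel-selected, reverse transcribed and barcode-sequenced together with genomic DNA barcodes, and UMIs were collapsed. Cleaved product abundance is the per-construct ratio of RNA to gDNA barcodes, scaled to the median of constructs carrying the unmutated site.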

[1] = experiment (reporter, strain, medium): exp 2b: truncated aprE reporter, strain BJT200, cleavage site: cggR-gapA (positions -7 to +36 mutated)
[2] = experiment (reporter, strain, medium): exp 4a: truncated aprE reporter, strain BJT201 with 2% xylose (RNase J1 expressed), cleavage site: cggR-gapA (positions -7 to +36 mutated)
[3] = experiment (reporter, strain, medium): exp 6: tetM reporter, strain 168, cleavage site: cggR-gapA (positions -7 to +36 mutated)
[4] = experiment (reporter, strain, medium): exp 8a: truncated aprE reporter, strain BJT201 with 2% xylose (RNase J1 expressed), cleavage site: glnRA (positions -5 to +31 mutated)

Sequence	cleaved RNA product abundance [2]	cleaved RNA product abundance [4]	also measured
ACAGACGAAGGAGCCGCGAAGAAGTTATTAAGGGATGAATAATCCCTCAATATAAATATCTCTCACTTATTTAAA	0.87		cleaved RNA product abundance [1]: 0.919; cleaved RNA product abundance [3]: 0.885
ACAGACGAAGGAGCCGCAAAGAAGTTATTAAGGTATGAATAATCCCTCAACATAAATATCTCTCACTTATTTAAA	0.11		
CGACATGTCCCGCTTCTTTCATTAATCCGTTAGCAACTGTTTTACTATATACATTCACCTTTTAAGAGGAGGAAT		0.4	
ACAGACGAAGGAGCCGCAAAGAAGTTATTAAAGGATGAATACTCCCTCAATATAAATATCTCTCACTTATTTAAA	0.108		cleaved RNA product abundance [1]: 0.117
ACAGACGAAGGAGCCGCAAAGAAATTATTAAGGGATGAATATTCCCTCAATATAAATATCTCTCACTTATTTAAA	0.595		
CGACATGTCCCGCTTCTTTCATTAATCCGTTAGCAACTGATTTGCTATATACATTTACCTTTTAAGAGGAGGAAT		0.96	
ACAGACGAAGGAGCCGCAAAGAAGTTATAAAGGGATGAATAATTCCTCAATATAAATATCTCTCACTTATTTAAA	0.293		
CGACATGTCCCGCTTCTTTCATTAATCCGTTAACAACAGTTTTGCTATATACATTTACCTTTTAAGAGGAGGAAT		0.183	
CGACATGTCCCGCTTCTTTCATTAAACCGTTAGCAACTGTTTCGCTATATACATTTACCTTTTAAGAGGAGGAAT		0.164	
ACAGACGAAGGAGCCGCAAAGAAGTTATTAAGGAATGAATAATCCCTCAATATAAATTTCTCTCACTTATTTAAA	0.142		cleaved RNA product abundance [1]: 0.114
CGACATGTCCCGCTTCTTTCATTAATCCGTTAGCAACTGTTTTGCTATATACATTTATTTTTTAAGAGGAGGAAT		2.39	
CGACATGTCCCGCTTCTTTCATTAATCCGTTAGCAATTGTTTTGCTATATACATTTACGTTTTAAGAGGAGGAAT		1.1	
ACAGACGAAGGAGCCGCAAAGGAGTTATTAAGGGATGAAGAATCCCTCAATATAAATATCTCTCACTTATTTAAA	0.859		
ACAGACGAAGGAGCCGCAAAGAAGGAATTAAGGGATGAATAATCCCTCAATATAAATATCTCTCACTTATTTAAA	0.353		
ACAGACGAAGGAGCCGCAAAGAAGTTATTAATGGATGGATAATCCCTCAATATAAATATCTCTCACTTATTTAAA	0.143		
CGACATGTCCCGCTTCTTTCATTAATCCGTTAGCAACTGTTTTGCTATATACCTTAACCTTTTAAGAGGAGGAAT		0.281	
ACAGACGAAGGAGCCGCAAAGAAGATATTAAGGGATGATTAATCCCTCAATATAAATATCTCTCACTTATTTAAA	0.803		
ACAGACGAAGGAGCCGCAAAGAAGATGTTAAGGGATGAATAATCCCTCAATATAAATATCTCTCACTTATTTAAA	0.741		cleaved RNA product abundance [1]: 0.513
ACAGACGAAGGAGCCGCAAAGAAGTTATTAAGGGATCCATAATCCCTCAATATAAATATCTCTCACTTATTTAAA	0.481		
ACAGACGAAGGAGCCGCAAAGTAGTTATTAAGGGATGAATAAGCCCTCAATATAAATATCTCTCACTTATTTAAA	0.448		
ACAGACGAAGGAGCCGCAACGAAATTATTAAGGGATGAATAATCCCTCAATATAAATATCTCTCACTTATTTAAA	1.03		cleaved RNA product abundance [1]: 1.1
CGACATGTCCCGCTTCTTTCATTAATCCGTTAGCAACTGTCTTGATATATACATTTACCTTTTAAGAGGAGGAAT		0.547	
ACAGACGAAGGAGCCGCAAAGTAGTTATTAAGGGATGAATAATCCATCAATATAAATATCTCTCACTTATTTAAA	0.161		cleaved RNA product abundance [1]: 0.187
ACAGACGAAGGAGCCGCAAAGAAGTTATTAAGGGATGGATAATCCCTCAATATAAAAATCTCTCACTTATTTAAA	0.356		
ACAGACGAAGGAGCCGCAAAGAAGTTTTTAAGGGACGAATAATCCCTCAATATAAATATCTCTCACTTATTTAAA	0.444		
CGACATGTCCCGCTTCTTTCATTATTACGTTAGCAACCGTTTTGCTATATACATTTACCTTTTAAGAGGAGGAAT		1.06	
CGACATGTCCCGCTTCTTTCATTAATCGCTTAGCAACTGTTTTGCTATATACATTTACCTTTTAAGAGGAGGAAT		0.335	
CGACATGTCCCGCTTCTTTCATTAATCCGTTATCAACTGTTTTGCTATATACATTTATCTTTTAAGAGGAGGAAT		0.347	
ACAGACGAAGGAGCCGTAAAGAAGTTATTAAGGCATGAATAATCCCTCAATATAAATATCTCTCACTTATTTAAA			cleaved RNA product abundance [3]: 0.143
ACAGACGAAGGAGCCGCAAAGAAGTTATTAAGGTATGAATAATCCCTCAATATAAATATCTCTCACTTATTTAAA	0.142		cleaved RNA product abundance [1]: 0.107; cleaved RNA product abundance [3]: 0.127
